Data as given in patent publication US20240209109A1.
Positions count from the first letter of the chain named.

Molecular target: human CD40-His protein (human) (UniProt P25942)
Assay: SPR Biacore T200, antibody captured on Protein A, CD40-His injected

human CD40-His protein (human), sequence (P25942 21-193 limits assumed): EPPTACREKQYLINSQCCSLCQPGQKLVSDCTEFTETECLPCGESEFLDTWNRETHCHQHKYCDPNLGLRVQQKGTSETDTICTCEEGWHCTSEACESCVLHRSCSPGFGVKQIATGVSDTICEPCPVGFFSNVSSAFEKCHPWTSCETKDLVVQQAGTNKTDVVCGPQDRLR

B1: 2p931 anti-Claudin 18.2/CD40 bispecific antibody (bispecific antibody, part only; not given: Claudin 18.2 Fab arms, constant regions, linker, V domains shown, not shown: another chain or arm of the molecule; a dimerising Fc or GST; small tags and cut ends)
VHH: AVQLVESGGGLVQPGGSLRLSCAASGFSFRNYMMNWVRQAPGKGLECLSSITSAGDITSYTESVKGRFTISRDNAKNTLYLQMNSLKPEDTAVYYCAQGGCGNYYRESWGQGTQVTVSS
For B1, the Kd was 86.2 nM, the koff was 0.00409 s⁻¹ and the kon was 47400 M⁻¹ s⁻¹.

B2: 2p957 anti-Claudin 18.2/CD40 bispecific antibody (bispecific antibody, part only; not given: Claudin 18.2 Fab arms, constant regions, linker, V domains shown, not shown: another chain or arm of the molecule; a dimerising Fc or GST; small tags and cut ends)
VHH: B1 VHH with A1P, M33I, N35S, C47W, S53N, A54S, D56G, C101S, G102D, E107G
Binder B2 has a Kd of 2310 nM, a koff of 0.107 s⁻¹ and a kon of 46400 M⁻¹ s⁻¹.

B3: 42p155 anti-Claudin 18.2/CD40 bispecific antibody (bispecific antibody, part only; not given: Claudin 18.2 Fab arms, constant regions, linker, V domains shown, not shown: another chain or arm of the molecule; a dimerising Fc or GST; small tags and cut ends)
VHH: PSQLVESGGGLVQPGGSLRLSCAASGFAFRSYTMSWVRQAPGKGLEWVSTITHNGAITTYAESAQGRFTISRDNAKNTLYLQMNSLKPEDTAVYYCAQGGGSNYYRESWGQGTQVTVSS
B3 gave a Kd of 760 nM, a koff of 0.0374 s⁻¹ and a kon of 49100 M⁻¹ s⁻¹.

B4: 2p1294 anti-Claudin 18.2/CD40 bispecific antibody (bispecific antibody, part only; not given: Claudin 18.2 Fab arms, constant regions, linker, V domains shown, not shown: another chain or arm of the molecule; a dimerising Fc or GST; small tags and cut ends)
VHH: B3 VHH with P1Q, S2V, A28S, S31R, T50A, T52S, H53D, A61T
In the case of B4, the Kd is reported as 182 nM, the koff is reported as 0.0187 s⁻¹ and the kon is reported as 103000 M⁻¹ s⁻¹.

B5: 2p834 anti-Claudin 18.2/CD40 bispecific antibody (bispecific antibody, part only; not given: Claudin 18.2 Fab arms, constant regions, linker, V domains shown, not shown: another chain or arm of the molecule; a dimerising Fc or GST; small tags and cut ends)
VHH: B3 VHH with P1Q, S31R, A56S
B5 showed a Kd of 90.6 nM, a koff of 0.0084 s⁻¹ and a kon of 92700 M⁻¹ s⁻¹.

B6: 42p655 anti-Claudin 18.2/CD40 bispecific antibody (bispecific antibody, part only; not given: Claudin 18.2 Fab arms, constant regions, linker, V domains shown, not shown: another chain or arm of the molecule; a dimerising Fc or GST; small tags and cut ends)
VHH: B3 VHH with P1A, S2V, S31R, T50S, H53D, A56S, Y95H
Binder B6 has a Kd of 47.5 nM, a koff of 0.00442 s⁻¹ and a kon of 93100 M⁻¹ s⁻¹.

B7: 3p78 anti-Claudin 18.2/CD40 bispecific antibody (bispecific antibody, part only; not given: Claudin 18.2 Fab arms, constant regions, linker, V domains shown, not shown: another chain or arm of the molecule; a dimerising Fc or GST; small tags and cut ends)
VHH: B3 VHH with S2V, A28T, S31N, T33A
B7 showed a Kd of 2490 nM, a koff of 0.107 s⁻¹ and a kon of 42700 M⁻¹ s⁻¹.

B8: 2p1130 anti-Claudin 18.2/CD40 bispecific antibody (bispecific antibody, part only; not given: Claudin 18.2 Fab arms, constant regions, linker, V domains shown, not shown: another chain or arm of the molecule; a dimerising Fc or GST; small tags and cut ends)
VHH: EVQVVESGGGLVQPGGSLRLTCAASGFSVDDYGIGWFRQAPGREREGVACITPNGLMMNFANTVGSVAGRFSASRDSGENTVSLQMSSLKPEDTAIYFCAHSRDDSCRGSLSDYDDWGQGTQVTVSS
In the case of B8, the Kd is reported as 2770 nM, the koff is reported as 0.0705 s⁻¹ and the kon is reported as 25400 M⁻¹ s⁻¹.

B9: 2p415 anti-Claudin 18.2/CD40 bispecific antibody (bispecific antibody, part only; not given: Claudin 18.2 Fab arms, constant regions, linker, V domains shown, not shown: another chain or arm of the molecule; a dimerising Fc or GST; small tags and cut ends)
VHH: QLHFVESGGGLVQPGGSLRLSCAASGFTLDHYAMGWFRQAPGKEREGVSCISGGGSTRYADSAKGRFTISRDNAKNTVYLQMNSLTPEDTAVYYCAAARLLSRNCVPRDSGSWGQGTQVTVSS
B9 showed a Kd of 754 nM, a koff of 0.0447 s⁻¹ and a kon of 59300 M⁻¹ s⁻¹.

B10: 2p442 anti-Claudin 18.2/CD40 bispecific antibody (bispecific antibody, part only; not given: Claudin 18.2 Fab arms, constant regions, linker, V domains shown, not shown: another chain or arm of the molecule; a dimerising Fc or GST; small tags and cut ends)
VHH: B9 VHH with L2V, H3Q, F4L, A23V, H31Y, Y32F, M34I, A63V
With B10 the Kd was 1030 nM, the koff was 0.045 s⁻¹ and the kon was 43700 M⁻¹ s⁻¹.

B11: 2p551 anti-Claudin 18.2/CD40 bispecific antibody (bispecific antibody, part only; not given: Claudin 18.2 Fab arms, constant regions, linker, V domains shown, not shown: another chain or arm of the molecule; a dimerising Fc or GST; small tags and cut ends)
VHH: B9 VHH with H31Y, M34I, A63V, R103T
B11 showed a Kd of 492 nM, a koff of 0.0177 s⁻¹ and a kon of 36100 M⁻¹ s⁻¹.

B12: 42p495 anti-Claudin 18.2/CD40 bispecific antibody (bispecific antibody, part only; not given: Claudin 18.2 Fab arms, constant regions, linker, V domains shown, not shown: another chain or arm of the molecule; a dimerising Fc or GST; small tags and cut ends)
VHH: PVQLVESGGNLVQPGGSLRLSCVAPGFTSRNSAMSWVRQAPGKGLEWVSTIYSGKSNTDYADSVKGRFTISTDNAKNTLYLHMNKLKSEDTAVYYCAKGAASDWYVPRDYWGQGTQVTVSS
Work on B12 yielded a Kd of 935 nM, a koff of 0.0118 s⁻¹ and a kon of 12700 M⁻¹ s⁻¹.
